Here are results for 22 sequences from patent US20090018093.

pIC50, pKd: −log10 of the molar value. Like-named read-outs stand apart in the source and are kept apart here.

The term pKd denotes the Kd on a negative log10 scale, so that one unit is a factor of ten. For orientation: pIC50 means the IC50 on a negative log10 scale, so that one unit is a factor of ten.

Data set [1] relates to Immunoglobulin E (IgE) (Homo sapiens), P01854-1. The experiment in a line: filter.
The test system is the same in data set [2]. As to the kind of experiment: inhibition.
[3] abbreviates: dRmY: 2'-deoxy A,G, 2'-OMe C,U, 1xPBS, BSA, tRNA, ssDNA, 25 C.
Setting [4] is: 2'-OMe C,U, deoxy A,G, FACS, 15 nM IgE.

Immunoglobulin E (IgE) (Homo sapiens), P01854-1, sequence (P01854 other isoform, or with tags, fused parts or gaps): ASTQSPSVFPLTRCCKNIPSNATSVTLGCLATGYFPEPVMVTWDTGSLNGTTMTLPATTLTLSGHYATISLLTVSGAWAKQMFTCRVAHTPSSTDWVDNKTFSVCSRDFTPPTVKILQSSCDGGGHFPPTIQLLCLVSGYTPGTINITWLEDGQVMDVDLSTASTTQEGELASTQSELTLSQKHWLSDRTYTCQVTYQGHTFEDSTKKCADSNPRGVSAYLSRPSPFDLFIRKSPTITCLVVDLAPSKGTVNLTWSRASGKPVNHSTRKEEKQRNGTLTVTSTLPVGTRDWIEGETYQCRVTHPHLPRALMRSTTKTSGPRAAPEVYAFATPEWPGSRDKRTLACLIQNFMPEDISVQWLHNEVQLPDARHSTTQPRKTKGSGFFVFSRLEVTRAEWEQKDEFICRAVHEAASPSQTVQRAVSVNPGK

Turning to AGCCUGGGGACCCAUGGGGGGCU [ARC1335], the pKd in data set [1] (2'-OMe C,U,A1,G2,G7,A10,A14,G17, deoxy G6,G8,G9,G16,G18-G21, 3' idT [2'-OMe: 1-5,7,10-15,17,22,23, deoxy: 6,8,9,16,18-21, 24 = 3' inverted dT], dPBS Ca/Mg + BSA, RT) was 9.52. In data set [2] (2'-OMe A1,G2,G7,A10,A14,G17 and all C,U, rest 2'-deoxy, 3' idT [2'-OMe at 1,2,3,4,5,7,10,11,12,13,14,15,17,22,23, 2'-deoxy at 6,8,9,16,18,19,20,21, 3' idT left out], FACS, 2.5 nM IgE), this sequence gave a pIC50 of 8.14.

In the case of AGCCUGGGGACCCAUGGGGGGCU [ARC1337], the negative-log Kd (pKd) in data set [1] (as printed dA-s-mGmCmCmUdGmGdGdG-s-mAmCmCmCmAmU-s-dG-s-mGdGdGdG-s-dGmCmU-3T [deoxy: 1,6,8,9,16,18-21, 2'-OMe: 2-5,7,10-15,17,22,23, phosphorothioate after 1,9,15,16,20 (also after 18 per given string), 24 = 3' inverted dT], dPBS Ca/Mg + BSA, RT) was 9.70. The pIC50 in data set [2] (2'-OMe/2'-deoxy mix, PS, 3' idT [PS after 1,9,15,16,18,20, 2'-OMe/2'-deoxy mix, 3' idT left out], FACS, 2.5 nM IgE) was 8.33.

With AGCCUGGGGACCCAUGGGGGGCU [ARC1382], in data set [1] (2'-OMe/2'-deoxy mix, PS linkages as in Table 17, 3' idT [phosphorothioate linkages (internal N, left out) between 8-9, 18-19, 20-21, 2'-OMe/2'-deoxy mix (positions not given), 3' inverted dT at 24], DPBS Mg/Ca, 0.1 mg/mL BSA, RT), the pKd is 8.96. This sequence also showed a negative logarithm of the IC50 (pIC50) in data set [2] (2'-OMe/2'-deoxy mix, PS linkages as in Table 17, 3' idT [phosphorothioate linkages (internal N, left out) between 8-9, 18-19, 20-21, 2'-OMe/2'-deoxy mix (positions not given), 3' inverted dT at 24], FACS, 2.5 nM IgE) of 8.16.

AGCCUGGGGACCCAUGGGGGGCU [ARC1383] had a pKd in data set [1] (2'-OMe/2'-deoxy mix, PS linkages as in Table 17, 3' idT [phosphorothioate linkages (internal N, left out) between 8-9, 15-16, 18-19, 20-21, 2'-OMe/2'-deoxy mix (positions not given), 3' inverted dT at 24], DPBS Mg/Ca, 0.1 mg/mL BSA, RT) of 9.00. For the same sequence, the negative-log IC50 (pIC50) in data set [2] (2'-OMe/2'-deoxy mix, PS linkages as in Table 17, 3' idT [phosphorothioate linkages (internal N, left out) between 8-9, 15-16, 18-19, 20-21, 2'-OMe/2'-deoxy mix (positions not given), 3' inverted dT at 24], FACS, 2.5 nM IgE) is 8.12.

Take AGCCUGGGGACCCAUGGGGGGCU [ARC1384]: the negative-log Kd (pKd) in data set [1] (as printed mAmGmCmCmUdGmG-s-dGmAmCmCmCmAmU-s-dG-s-mGdG-s-dGdG-s-dGmCmU-3T [2'-OMe: 1-5,7,10-15,17,22,23, deoxy: 6,8,9,16,18-21, phosphorothioate after 8,15,16,18,20, 24 = 3' inverted dT], dPBS Ca/Mg + BSA, RT) was 9.30. Moreover, in data set [2] (2'-OMe/2'-deoxy mix, PS, 3' idT [PS after 8,15,16,18,20, 2'-OMe/2'-deoxy mix, 3' idT left out], FACS, 2.5 nM IgE), the pIC50 is 8.36.

AGCCUGGGGACCCAUGGGGGGCU [ARC1572] gave a pKd in data set [1] (2'-OMe/2'-deoxy mix, PS linkages as in Table 17, 3' idT [phosphorothioate linkages (internal N, left out) between 5-6, 7-8, 8-9, 15-16, 17-18, 18-19, 19-20, 20-21, 2'-OMe/2'-deoxy mix (positions not given), 3' inverted dT at 24], DPBS Mg/Ca, 0.1 mg/mL BSA, RT) of 9.52. This sequence showed a pIC50 in data set [2] (2'-OMe/2'-deoxy mix, PS linkages as in Table 17, 3' idT [phosphorothioate linkages (internal N, left out) between 5-6, 7-8, 8-9, 15-16, 17-18, 18-19, 19-20, 20-21, 2'-OMe/2'-deoxy mix (positions not given), 3' inverted dT at 24], FACS, 2.5 nM IgE) of 7.64.

Regarding AGCCUGGGGACCCAUGGGGGGCU [ARC1573], the negative-log Kd (pKd) in data set [1] (as printed mAmGmCmCmU-s-dG-s-mG-s-dG-s-dGmAmCmCmCmAmU-s-dG-s-mG-s-dG-s-dG-s-dG-s-dG-s-mCmU-3T [2'-OMe: 1-5,7,10-15,17,22,23, deoxy: 6,8,9,16,18-21, phosphorothioate after 5-8,15-21, 24 = 3' inverted dT], dPBS Ca/Mg + BSA, RT) was 9.40. Further, the pIC50 in data set [2] (2'-OMe/2'-deoxy mix, PS, 3' idT [PS after 5,6,7,8,15,16,17,18,19,20,21, 2'-OMe/2'-deoxy mix, 3' idT left out], FACS, 2.5 nM IgE) is 7.16.

For AGCCUGGGGACCCAUGGGGGGCU [ARC1641], in data set [1] (mAmGmCmCmUdGmGdG-s-dGmAmCmCmCmAmU-s-dG-s-mGdG-s-dGdI-s-dGmCmU-3T [2'-OMe 1-5,7,10-15,17,22,23, dI20 (inosine, parent base G), phosphorothioate 8/9,15/16,16/17,18/19,20/21 (N linkage letters left out), 3' inverted dT24], dPBS Ca/Mg + BSA, RT), the negative-log Kd (pKd) was 9.40. In data set [2] (2'-OMe/2'-deoxy mix, dI20, PS, 3' idT [dI at 20 (written as parent G), PS after 8,15,16,18,20, 2'-OMe/2'-deoxy mix, 3' idT left out], FACS, 2.5 nM IgE), the pIC50 was 8.74.

As to AGCCUGGGGACCCAUGGGGGGCU [ARC1642], in data set [1] (2'-OMe/2'-deoxy mix, dI16,dI20, PS, 3' idT [16=dI, 20=dI (G parent), 24=3' inverted dT, phosphorothioate linkage N's left out], DPBS Mg/Ca, 0.1 mg/mL BSA, RT), the pKd is 9.40. Also, the pIC50 in data set [2] (2'-OMe/2'-deoxy mix, dI16,dI20, PS, 3' idT [16=dI, 20=dI (G parent), 24=3' inverted dT, phosphorothioate linkage N's left out], FACS, 2.5 nM IgE) is 8.74.

With AGCCUGGGGACCCAUGGGGGGCU [ARC1643], the negative logarithm of the Kd (pKd) in data set [1] (2'-OMe/2'-deoxy mix, dI20, PS, 3' idT [20=dI (G parent), 24=3' inverted dT, phosphorothioate linkage N's left out (5^6, 7^8, 8^9, 15^16, 17^18, 18^19, 19^20, 20^21)], DPBS Mg/Ca, 0.1 mg/mL BSA, RT) is 8.96. Further, in data set [2] (2'-OMe/2'-deoxy mix, dI20, PS, 3' idT [20=dI (G parent), 24=3' inverted dT, phosphorothioate linkage N's left out (5^6, 7^8, 8^9, 15^16, 17^18, 18^19, 19^20, 20^21)], FACS, 2.5 nM IgE), the pIC50 is 8.10.

On to AGCCUGGGGACCCAUGGGGGGCU [ARC1644], for which the pKd in data set [1] (2'-OMe/2'-deoxy mix, dI16,dI20, PS, 3' idT [16=dI, 20=dI (G parent), 24=3' inverted dT, phosphorothioate linkage N's left out (5^6, 7^8, 8^9, 15^16, 17^18, 18^19, 19^20, 20^21)], DPBS Mg/Ca, 0.1 mg/mL BSA, RT) was 8.77. Besides, the negative-log IC50 (pIC50) in data set [2] (2'-OMe/2'-deoxy mix, dI16,dI20, PS, 3' idT [16=dI, 20=dI (G parent), 24=3' inverted dT, phosphorothioate linkage N's left out (5^6, 7^8, 8^9, 15^16, 17^18, 18^19, 19^20, 20^21)], FACS, 2.5 nM IgE) is 8.28.

As to AGCCUGGGGACCCAUGGGGGGCU [ARC1667], in data set [1] (2'-OMe/2'-deoxy mix, dI18,dI20, PS as printed, 3' idT [18=dI, 20=dI (G parent), 24=3' inverted dT, phosphorothioate linkage N's left out], DPBS Mg/Ca, 0.1 mg/mL BSA, RT), the pKd is 9.40. The negative logarithm of the IC50 (pIC50) in data set [2] (2'-OMe/2'-deoxy mix, dI18,dI20, PS as printed, 3' idT [18=dI, 20=dI (G parent), 24=3' inverted dT, phosphorothioate linkage N's left out], FACS, 2.5 nM IgE) was 8.64.

For the sequence AGCCUGGGGACCCAUGGGGGGCU [ARC1728], the pKd in data set [1] (2'-OMe/2'-deoxy mix, dI, PS, 3' idT [18=dI, 20=dI (G parent), 24=3' inverted dT, phosphorothioate linkage N's left out (5^6, 7^8, 8^9, 15^16, 17^18, 18^19, 19^20, 20^21)], DPBS Mg/Ca, 0.1 mg/mL BSA, RT) was 8.64. Moreover, the pIC50 in data set [2] (2'-OMe/2'-deoxy mix, dI, PS, 3' idT [18=dI, 20=dI (G parent), 24=3' inverted dT, phosphorothioate linkage N's left out (5^6, 7^8, 8^9, 15^16, 17^18, 18^19, 19^20, 20^21)], FACS, 2.5 nM IgE) was 7.88.

Regarding AGCCUGGGGACCCAUGGGGGGCU [ARC1729], the pKd in data set [1] (2'-OMe/2'-deoxy mix, dI16,dI18,dI20, PS as printed, 3' idT [16=dI, 18=dI, 20=dI (G parent), 24=3' inverted dT, 2'-OMe at 1-5,7,10-15,17,22,23, phosphorothioate linkage N's left out (5^6, 7^8, 8^9, 15^16, 17^18, 18^19, 19^20, 20^21)], DPBS Mg/Ca, 0.1 mg/mL BSA, RT) is 9.00. The negative-log IC50 (pIC50) in data set [2] (2'-OMe/2'-deoxy mix, dI16,dI18,dI20, PS as printed, 3' idT [16=dI, 18=dI, 20=dI (G parent), 24=3' inverted dT, 2'-OMe at 1-5,7,10-15,17,22,23, phosphorothioate linkage N's left out (5^6, 7^8, 8^9, 15^16, 17^18, 18^19, 19^20, 20^21)], FACS, 2.5 nM IgE) is 8.54.

In the case of AGUUCUGGGGACCCAUGGGGGAACU [ARC443], in data set [1] (setting [3]), the pKd is 7.26. In addition, the negative logarithm of the IC50 (pIC50) in data set [2] (setting [4]) was 7.52.

GCCUGGGGACCCAUGGGGGGC [ARC444] had a pKd in data set [1] (setting [3]) of 7.14. This sequence showed a pIC50 in data set [2] (setting [4]) of 7.28.

On to “GGAAAAGCGAAUCAUACACAAGAGUCGCGAUAGAUUGCUUGUGAAUGGUUUUGGUGGAAGCGGGCUCCGCCAGAGACCAACCGAGAA [rRfY clone SEQ 12]”, for which the negative-log Kd (pKd) in data set [1] (2'-F C and U, biphasic, KD2 9.85 nM, 1xSHMCK + 0.1 mg/mL tRNA, RT) is 10.24. The sequence further showed a pIC50 in data set [2] (2'-F C,U, ELISA FceR1-Fc, FACS 7.1 nM (Table 25)) of 8.30.

As to “GGAAUCAUACACAAGACGUCGCCAGAUUGAGUGUCGUGGUUCC [rRfY minimer SEQ 91]”, the negative logarithm of the Kd (pKd) in data set [1] (2'-F C and U, KD2 36.9 nM, 1xSHMCK + tRNA) is 9.25. Moreover, the negative-log IC50 (pIC50) in data set [2] (2'-F C,U, FACS, 15 nM IgE) was 8.42.

“GGCGGCAGCTTTATCCGTACCTCCCAGTGGGCTGCTCC [DNA clone SEQ 149]” gave a pKd in data set [1] of 9.10. The sequence further gave a negative logarithm of the IC50 (pIC50) in data set [2] (FACS, 15 nM IgE) of 7.25.

As for “GGGAAAAGCGAAUCAUACACAAGACGUCAGUAAGAUUGAGUGUAUGGUUCCUGGUGGACAAUAAUGGCUCCGCCAGAGACCAACCGAGAA [rRfY clone SEQ 21]”, the pKd in data set [1] (2'-F C and U, biphasic, KD2 27.1 nM, 1xSHMCK + tRNA, RT) is 9.74. Further, the negative logarithm of the IC50 (pIC50) in data set [2] (2'-F C,U, ELISA FceR1-Fc, FACS 14.4 nM (Table 25)) was 8.43.

Consider “GGGAAAAGCGAAUCAUACACAAGAGGUCUUACAGAUCCUGUGUAGUGGUUCGAUACAUGCGGGGCUCCGCCAGAGACCAACCGAGAA [rRfY clone SEQ 14]”, for which the pKd in data set [1] (2'-F C and U, biphasic, KD2 99.5 nM, 1xSHMCK + tRNA, RT) is 8.97. Further, the pIC50 in data set [2] (2'-F C,U, ELISA FceR1-Fc, FACS 17.3 nM (Table 25)) was 7.57.

“NNAGCCUGGGNGACCCAUNNNGNNGNNGCUN [ARC1788]” had a negative logarithm of the IC50 (pIC50) in data set [2] (ARC1666 chemistry, 5' 60 kDa branched PEG, 3' idT, FACS, IgE-FceR1 on SX38 cells) of 8.92.
